# Measured values reported in article PMC2757703.
# Tested on: 40S small ribosomal subunit (rabbit reticulocyte lysate) (rabbit)
# Assay: sucrose density gradient
# Details: EMSA: 20 mM Tris pH 7.6, 50 mM KCl, 2.5 mM MgOAc, 0.05% NP40, 1 mM DTT, 1 ug/uL yeast tRNA, 30 C 20 min, gradients: 20 mM Tris-HCl pH 7.5, 100 mM KOAc
Substance,binding signal (% of labeled RNA bound to small subunit),binding signal (scale: % of labeled RNA in small-subunit fractions)
CrPV IRES RNA,> 50,–
GLV IRES RNA,–,10
